Assay results reported in PMC10550236.

How the values were obtained:
[1] = target: CC^DD, CC fragment with glutamic acid replaced with aspartic acid at two core hydrophilic positions (Apis mellifera); assay: SDS-PAGE under oligomer-forming (very low denaturation) conditions with Western blot; myc-tagged proteins translated in reticulocyte lysate; native loading buffer with no SDS; 0.01% SDS in the gel, 0.15% SDS as running buffer; anti-myc detection; complexes and monomers quantified by chemiluminescence
[2] = target: Fem proteins (Apis mellifera); assay: SDS-PAGE under oligomer-forming (very low denaturation) conditions with Western blot; complexation of Fem proteins (fig. S6); the text does not name the method, taken from the experiments on Csd that precede it

reduction of homotrimer formation compared to the WT [1]	stoichiometry N [2]	Substance
50 to 90%	–	CC^DD, CC fragment with glutamic acid replaced with aspartic acid at two core hydrophilic positions
–	3	Fem proteins (natural protein)
